Measurements: publication PMC4447253 (mBio, 2015)

What was measured:
cross-linking = biological target: the molecule itself; assay: cross-linking
native gel or EMSA = biological target: the molecule itself; assay: native gel or EMSA

| Protein | stoichiometry N (cross-linking) | binding result (native gel or EMSA) |
| --- | --- | --- |
| TraR-His (GntR-type transcriptional repressor TraR of plasmid pSVH1) (natural protein, Streptomyces venezuelae (plasmid pSVH1), UniProt Q3LAJ7 1-252, looked up) MTSTQSEKRVTARSIADDLRGKIRSGQLLPGSVLPTTKALAEEHGVSSKTVSAGIDLLKLEGLVVGEQGGRRRVRADRPITWNLTRFERGARRDSAVMDDWSTAISEAGRTPEQHVSVSRETANSDIAGWLQVPVGDDVVKRVRMRTVDGRPFQLSTSYFPKHVAVGTLLEEPGDVAVPGGILSHIGHPQLRVRDEISVRMPSPEESQELALPPGTPVAQHVRVGYGETGPVRVMVTIAPGDRHTLVYELEV | 2 | – |
| SpdB2-His (SpdB2 of plasmid pSVH1) (natural protein, Streptomyces venezuelae (plasmid pSVH1), UniProt Q3LAJ4 1-409, looked up) MSTYREEKRLDDQLRAEQKLRNEQLRAEQAREDRRLELEATQQRDAARAEEKRKDAEAKRRQEQAEKKARAAEQQAKKAAAAAKRAKLVRWLKANPATLFVGFVMVASIVPALLSQIGALTGATVAAPMAGLLAAMLEGGAWAITFMGKQAEDAGREPRKYRIGTWAVATVAAAVNFWHGLEAYGEHPWVAFVLGASSLFAIYIWDLKTHGSHGKTKEQKQAEKARRAHVSARRKHHPEIVEQAVKLQAALPYGVLDDESAFAAAWRIHTGAEPGLSAQLYATATEAVLQLGAAFELGDNVRDELLETGFKAARLNPFAELAQVPGSQAGLEENAPQGPASALRPDAPEGKSPEELEALLPDAVAAAAELVAEGRQISAHGLAKKLQIRRVDAALLRDRVIEQRRLHVA | – | binds |
